Measurements reported in the supplement of paper PMC12042874.
± gives the uncertainty stated by the source.

Experiment: amyloid nucleation score (Sup35N fusion, yeast selection) (log enrichment); library NNK3; higher = more nucleation; inactive = no reads after selection
Summary of the method: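 After 24 hours of induction with 100 μM copper sulfate, psi-negative yeast expressing peptides of 20 random codons fused to Sup35N were grown for 7 days at 30°C on medium lacking adenine and uracil. Input and output plasmid inserts were sequenced with Illumina, and sequences with under 100 input reads were discarded. Scores for nucleation are the DiMSum log enrichment of output over input reads, centred on the mode score of non-aggregating sequences.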

| Substance | amyloid nucleation score |
| --- | --- |
| CCITFLLSDLAMSYYVRYNR | 0.484 ± 0.12 |
| MYPLTVWIVLRLGDSFLK | inactive |
| RKARRGCYVFLPKFSNVEFH | 1.03 ± 0.12 |
| SIAIRVRAIIGKSRGKCPNG | 1.81 ± 0.092 |
| LFGYDSISLINRGCVGGFNV | inactive |
| VPDRCLD | inactive |
| ETFFIYDVALQ | inactive |
| CFVGVTFDLSSDLCLFCNKV | inactive |
| SFRFLV | inactive |
| GVLLNTSELGSNGMDSKTLD | inactive |
| NSDSFML | inactive |
| FTKLYELSDMHISYTRS | inactive |
| SSSTFPSSKIDYGTIR | inactive |
| SSFQSYYTSSDMTEF | inactive |
| CVYNRLNMF | -0.296 ± 0.28 |
| HYAVQYTNRYKGFKLHKQHN | inactive |
| IAAIGLELYWFFIVSIWGY | inactive |
| CSDNILEHYTSFYWLMSVHR | inactive |
| SHFTEFPYLGLHTYAVVE | inactive |
| KSNVLP | inactive |
| WEKYMRMSGRPMGRFKMTGR | inactive |
| LRYVGCTKMSGAMGARS | inactive |
| LNMLKVLFSWIRYDGNQ | inactive |

| Substance | amyloid nucleation score |
| --- | --- |
| GLDHLPMFWYRPLIWPDVPQ | inactive |
| LLRHDLYRVCTNRV | inactive |
| SKSNIRYSNTNGH | inactive |
| NSGDGSGVRFYSDNMDTYMA | 0.185 ± 0.88 |
| LRAKTRHSVLNCDRIVEPGG | 1.49 ± 0.13 |
| GIWDWVLAIMLRFVTKPS | inactive |
| GVGSRG | inactive |
| SVSVRRNYKLIFAASM | inactive |
| YKSVYMRF | 0.709 ± 0.18 |
| FNVGFLKWCFSMVGQGVDLH | inactive |
| KQVKMGVA | inactive |
| VGQFVRGLVKLCNGMYYWWL | inactive |
| LLCSKARSCRVDRMKRGGWV | inactive |
| NVKTGNKPRDTQSRYVLPES | inactive |
| IVGDRSLRSDEFSCC | inactive |
| NILRTRSRF | inactive |
| LLLRLLTMMVFNCILVDYGL | inactive |
| RMVHS | 1.62 ± 0.091 |
| KIHRAGDYWVMSNR | inactive |
| VFYELAYFSNNQTDQWVLD | inactive |
| METCPLCIICLYGKWIRFSR | inactive |
| PFLPAANNCVKQRCCFSGAL | inactive |
| ISSIYREYLLKHGMFRKRRK | inactive |

| Substance | amyloid nucleation score |
| --- | --- |
| MPEKERAKSSPYLSEPRPHD | inactive |
| NQQWISTRVVLKAPAFERRT | inactive |
| GGCDL | inactive |
| VHICKWVM | inactive |
| RKNAVCICSNL | inactive |
| LSVGVSRCLNPLLTIGSGRE | 1.28 ± 0.096 |
| SNVLGWLRKLYS | inactive |
| GSTTWYDLMIYLDME | inactive |
| HVDPCWQKTFTMMLFWVFLR | inactive |
| YSDWELVSGVQLA | inactive |
| VLDVFKGIW | inactive |
| SCGHFIGCWMGTQVRIYGKQ | inactive |
| SLFCRWLVVYPSMLRVKRVR | inactive |
| RLGTMVVDLVERARIEGDVF | inactive |
| LSGFSMIFREDNSVVFV | inactive |
| MIDIKCNERAFSEYRFWCRW | 0.141 ± 0.42 |
| YRVWTVYRVYILAGTKNIRS | inactive |
| ILVTLMVYIPHEYISVINLL | inactive |
| IGSAISGNYYTINNCDFDTS | inactive |
| YGFRMRRLVARLESRQWFWG | inactive |
| CCFPVVRKPFG | inactive |
| HEYKCKL | inactive |
| LELLRTERKRMKCLKPVLRV | inactive |

| Substance | amyloid nucleation score |
| --- | --- |
| MSLNLHLKQGVFKGHTVSAL | inactive |
| TCFVLQNKYVSRCGCWMCYS | 2.12 ± 0.051 |
| VWSEDIYFCIILRLMDKS | inactive |
| VAPLANHKASRDSYAYVSGS | inactive |
| QYFSWKIRSGNLVYAF | inactive |
| FSSRDWNYSSRMVKIRNGRF | inactive |
| PFSRTERRFYK | -0.463 ± 1.7 |
| VFYMRSETKLFL | -0.391 ± 0.8 |
| SRLTAFMNYVGCRMVSGWTR | inactive |
| KCCYRMVVDTV | inactive |
| SESMCVIVSRIIWCGKVSNV | inactive |
| IRTQYQEREASILYM | inactive |
| FVVRIKYTGSDLRLFRMVSF | inactive |
| GFRMGLTHCHSALKEFRFCH | inactive |
| CARRNLAVNYKYWFVGEHYI | inactive |
| FILRDHRLSLSNCAMKCPQG | inactive |
| KCEFN | inactive |
| RRYSRVKVRRLFMRNNLMLN | 0.283 ± 0.15 |
| WFSYQFV | inactive |
| GWYLFC | inactive |
| GESNVFILSAFNFNALVGFS | inactive |
| CKRNKDGKWRRKTWRLVQFY | -1 ± 1.2 |
| TVCYYWRN | 0.911 ± 0.2 |

| Substance | amyloid nucleation score |
| --- | --- |
| VVTHLALSKRSSAVTIFAWG | inactive |
| MFECNWAIFRREFLRLVCTV | inactive |
| LNRDGVISMFFSFCGGTRPR | -0.452 ± 0.93 |
| WVCYNKFSVCVWLVDKAD | 2.01 ± 0.095 |
| LYIIFHNKYFLVEMGNYNCC | 1.88 ± 0.07 |
| YSAQFITSIGLGQKLFS | inactive |
| IVWEGSSPLVLIKHGICKQR | inactive |
| DPGHGS | inactive |
| FAFKLWRKVQYVFHLFYPAR | 0.342 ± 0.69 |
| VLVEVEIYLILFIVYAW | inactive |
| SGFYNWI | inactive |
| MVGWVWERMRHAPWE | inactive |
| SGHVHNSMKPGRSRTCTMLR | inactive |
| FNQQLSECVDVARELAGG | 1.99 ± 0.086 |
| NIKFIEHLLSYSSTPQPLTC | inactive |
| QSLLDLMSFLMCV | inactive |
| IRCMRGTTRHVSGLKRVERN | inactive |
| RDEVLNSHFIVGSRMRSNVA | 1.31 ± 0.14 |
| RTSAHGNYFSQLESLRKMML | inactive |
| WSVGATWVVAFA | inactive |
| WFISTFDLDRYKFASCSKAW | inactive |
| ERSVPSGE | inactive |
| LSFTHSSDTECCGER | inactive |

| Substance | amyloid nucleation score |
| --- | --- |
| HLSFDIVV | inactive |
| MHAMCQLWCSS | -0.323 ± 1.4 |
| DSSPVPKGYNRVRPLVNLAV | inactive |
| NNLTEEEMDLAPTVSHYLYK | inactive |
| YFDCNFVW | 0.997 ± 0.14 |
| VLVNHGFYW | inactive |
| CRRRYSDLSIYLLVSNDVIV | inactive |
| DFGFWLVDVGWGPLLRYVAD | inactive |
| GTYCFINLTTRTGDRKGRHA | 1.05 ± 0.12 |
| MLWLNNGGLYWIALIFEMSS | inactive |
| LITGLDLPGIWHTVYSYYSV | inactive |
| YSTCDLGLHIGAQQERYGLG | 0.253 ± 0.37 |
| LFHNCHGFFHTNNVPFVRWP | inactive |
| HENYEFLFWWRESFS | inactive |
| VWQWKGRCHVTNRYWYFCSS | inactive |
| HLWVSVVNSTESSMTMA | inactive |
| CCARGGRVCRQLGLVSYTNV | inactive |
| NSGWWRVKHNTSQDGSKRSG | inactive |
| EVIVVKGHGVHIVFCVGSAS | inactive |
| PDVDLTTMLNNNMNYMYVKI | inactive |
| GAGYADICPTAFHMPRWVFN | inactive |
| LTVNDDFRYKAFWVCRSMFV | inactive |
| YTFTRV | inactive |

| Substance | amyloid nucleation score |
| --- | --- |
| RLINVMVCYLLEGCQGLLL | 1.67 ± 0.1 |
| STNGLLTSNS | inactive |
| VVHYSLVVPSDGW | inactive |
| MNVFWCACYRCSDRVSMKVW | 2 ± 0.058 |
| YVVNFVLL | 2.43 ± 0.085 |
| CFCQVSKANWLNR | inactive |
| DKSLFKII | inactive |
| YLYNRSMRVPLMSRKLFGGD | inactive |
| NRNRYMFLITITHY | inactive |
| RWNMLIDVHLNVYHRQDRWC | 0.636 ± 0.23 |
| QHSLGG | inactive |
| IFMITDQ | inactive |
| YRPGW | inactive |
| VTCWMVAVELKKIHYQCIES | inactive |
| RSRAFGDGKNWMHCRRYVM | inactive |
| FRCTRGSIVWSFYFVRNLMI | inactive |
| RDDNAKNVGSPRAAHTRALR | inactive |
| QVGQESDSCLSSIRLCFKYR | 0.163 ± 0.24 |
| LYSCRFMNLKTYLVL | inactive |
| AEGLCCMANLWSCAGSRTYT | 0.947 ± 0.13 |
| CYRISSESWSTWWIYFWSCR | inactive |
| WRTFLCWYVLGPKTSFEYGR | inactive |
